In patent publication US12472269B2, “Liver-specific inducible promoters and methods of use thereof” (ASKBIO INC., priority 2019, dated 2025):

Tested on: AXOL ARE-hepatocytes
Assay: Luciferase expression from PBREM promoters in AXOL ARE-hepatocytes, induction by CITCO
Format: cell-based, human
Settings: for induced luciferase expression as a ratio to CMV-IE: induction with CITCO, mean of 3 biological replicates
From the text: Axol Assay-Ready Expanded (ARE) Hepatocytes are primary human hepatocytes that have been expanded in vitro. Large batch sizes (up to 2000 vials) are available, ensuring a reliable, ready-to-use and consistent source of primary hepatocytes. ARE Hepatocytes express CYP enzymes, are metabolically functional, are polarized and can be infected by the Hepatitis C virus. AXOL ARE-hepatocytes express CAR negating the need to transfect with a CAR-expressing plasmid.
• AXOL assay-ready expanded (ARE) hepatocytes (Axol, ax3701) • ARE hepatocyte thawing medium (Axol, ax3705) • ARE maintenance medium (Axol, ax3710) • Virimer red transfection reagent (Lipocalyx, VR04-02-15) • CITCO, lucifierase, β-galactosidase and BCA kits as described above
ARE hepatocytes were cultured and transfected as described in the manufacturer's manual. 200,000 cells were seeded in 2 ml culture medium in collagen-coated 6 well plate. The cells were incubated for 4 h at 37° C. and 5% CO2 for sufficient adhesion. 200 μl of transfection mixture containing the DNA to be transfected (PB1-MinTK/PB1-CMV/PB1-SV40 operably linked with luciferase and β-galactosidase containing promoter) was added and the cells were incubated on an orbital shaker at 100 rpm for three hours at 37° C. and 5% CO2. 3 hrs after transfection CITCO was added to the appropriate wells. Cells were incubated under static conditions at 37° C. and 5% CO2 overnight and in the morning the medium was replaced with fresh ARE Hepatocyte Maintenance Medium. Readout was 24 hrs after induction. […]

[1] = single PBREM element, minimal promoters compared

Molecule	induced luciferase expression as a ratio to CMV-IE	further results
PB1-1-SV40: promoter: 2 mouse PBREM elements with SV40 minimal promoter, SEQ ID NO: 13 (nucleic acid, PB1-1-SV40) DNA: TCTGTACTTTCCTGACCTTGGCACAGTGCCACCATCAACTTGCCTGACACCCATTACTCGCATCCATTCTCTCTGTACTTTCCTGACCTTGGCACAGTGCCACCATCAACTTGCCTGACACCGCTGGGAGTTCGTAGACGGACTAGCCCGGGCTCGAGATCTGCGATCTGCATCTCAATTAGTCAGCAACCATAGTCCCGCCCCTAACTCCGCCCATCCCGCCCCTAACTCCGCCCAGTTCCGCCCATTCTCCGCCCCATCGCTGACTAATTTTTTTTATTTATGCAGAGGCCGAGGCCGCCTCGGCCTCTGAGCTATTCCAGAAGTAGTGAGGAGGCTTTTTTGGAGGCCTAGGCTTTTGCAAAAAGCTTGGCATTCCGGTACTGTTGGTAAAGCCACCC	2.6	–
PB1-2-SV40: promoter: 3 mouse PBREM elements with SV40 minimal promoter, SEQ ID NO: 14 (nucleic acid, PB1-2-SV40) DNA: TCTGTACTTTCCTGACCTTGGCACAGTGCCACCATCAACTTGCCTGACACCCATTACTCGCATCCATTCTCTCTGTACTTTCCTGACCTTGGCACAGTGCCACCATCAACTTGCCTGACACCGCACTGAAGGTCCTCAATCGTCTGTACTTTCCTGACCTTGGCACAGTGCCACCATCAACTTGCCTGACACCGCTGGGAGTTCGTAGACGGACTAGCCCGGGCTCGAGATCTGCGATCTGCATCTCAATTAGTCAGCAACCATAGTCCCGCCCCTAACTCCGCCCATCCCGCCCCTAACTCCGCCCAGTTCCGCCCATTCTCCGCCCCATCGCTGACTAATTTTTTTTATTTATGCAGAGGCCGAGGCCGCCTCGGCCTCTGAGCTATTCCAGAAGTAGTGAGGAGGCTTTTTTGGAGGCCTAGGCTTTTGCAAAAAGCTTGGCATTCCGGTACTGTTGGTAAAGCCACCC	3.6	–
PB1-3-SV40: promoter: 4 mouse PBREM elements with SV40 minimal promoter, SEQ ID NO: 15 (nucleic acid, PB1-3-SV40) DNA: TCTGTACTTTCCTGACCTTGGCACAGTGCCACCATCAACTTGCCTGACACCCATTACTCGCATCCATTCTCTCTGTACTTTCCTGACCTTGGCACAGTGCCACCATCAACTTGCCTGACACCGCACTGAAGGTCCTCAATCGTCTGTACTTTCCTGACCTTGGCACAGTGCCACCATCAACTTGCCTGACACCCTGACCTCCTGCCAGCAATATCTGTACTTTCCTGACCTTGGCACAGTGCCACCATCAACTTGCCTGACACCGCTGGGAGTTCGTAGACGGACTAGCCCGGGCTCGAGATCTGCGATCTGCATCTCAATTAGTCAGCAACCATAGTCCCGCCCCTAACTCCGCCCATCCCGCCCCTAACTCCGCCCAGTTCCGCCCATTCTCCGCCCCATCGCTGACTAATTTTTTTTATTTATGCAGAGGCCGAGGCCGCCTCGGCCTCTGAGCTATTCCAGAAGTAGTGAGGAGGCTTTTTTGGAGGCCTAGGCTTTTGCAAAAAGCTTGGCATTCCGGTACTGTTGGTAAAGCCACCC	2.57	–
PB1-1-MinTK: promoter: 2 mouse PBREM elements with MinTK minimal promoter, SEQ ID NO: 10 (nucleic acid, PB1-1-MinTk (2xPBREM)) DNA: TCTGTACTTTCCTGACCTTGGCACAGTGCCACCATCAACTTGCCTGACACCCATTACTCGCATCCATTCTCTCTGTACTTTCCTGACCTTGGCACAGTGCCACCATCAACTTGCCTGACACCGCTGGGAGTTCGTAGACGGAGATCCGGCCCCGCCCAGCGTCTTGTCATTGGCGAATTCGAACACGCAGATGCAGTCGGGGCGGCGCGGTCCGAGGTCCACTTCGCATATTAAGGTGACGCGTGTGGCCTCGAACACCGAGCGACCCTGCAGCGACCCGCTTAACAGCGTCAACAGCGTGCCGCAGATCTCGAGGAGCTTGGCGAGATTTTCAGGAGCTAAGGAAGCTAAAC	1.5	–
PB1-3-MinTK: promoter: 4 mouse PBREM elements with MinTK minimal promoter, SEQ ID NO: 12 (nucleic acid, PB1-3-MinTk) DNA: TCTGTACTTTCCTGACCTTGGCACAGTGCCACCATCAACTTGCCTGACACCCATTACTCGCATCCATTCTCTCTGTACTTTCCTGACCTTGGCACAGTGCCACCATCAACTTGCCTGACACCGCACTGAAGGTCCTCAATCGTCTGTACTTTCCTGACCTTGGCACAGTGCCACCATCAACTTGCCTGACACCCTGACCTCCTGCCAGCAATATCTGTACTTTCCTGACCTTGGCACAGTGCCACCATCAACTTGCCTGACACCGCTGGGAGTTCGTAGACGGAGATCCGGCCCCGCCCAGCGTCTTGTCATTGGCGAATTCGAACACGCAGATGCAGTCGGGGCGGCGCGGTCCGAGGTCCACTTCGCATATTAAGGTGACGCGTGTGGCCTCGAACACCGAGCGACCCTGCAGCGACCCGCTTAACAGCGTCAACAGCGTGCCGCAGATCTCGAGGAGCTTGGCGAGATTTTCAGGAGCTAAGGAAGCTAAAC	2.66	–
PB1-3-CMV: promoter: 4 mouse PBREM elements with CMV minimal promoter, SEQ ID NO: 18 (nucleic acid, PB1-3-CMV) DNA: TCTGTACTTTCCTGACCTTGGCACAGTGCCACCATCAACTTGCCTGACACCCATTACTCGCATCCATTCTCTCTGTACTTTCCTGACCTTGGCACAGTGCCACCATCAACTTGCCTGACACCGCACTGAAGGTCCTCAATCGTCTGTACTTTCCTGACCTTGGCACAGTGCCACCATCAACTTGCCTGACACCCTGACCTCCTGCCAGCAATATCTGTACTTTCCTGACCTTGGCACAGTGCCACCATCAACTTGCCTGACACCGCTGGGAGTTCGTAGACGGAGCGATTAATCCATATGCAGGTCTATATAAGCAGAGCTCGTTTAGTGAACCGTCAGATCGCCTAGATACGCCATCCACGCTGTTTTGACCTCCATAGAAGATCGCCACCC	2.67	–
PB1-1-CMV: promoter: 2 mouse PBREM elements with CMV minimal promoter, SEQ ID NO: 16 (nucleic acid, PB1-1-CMV) DNA: TCTGTACTTTCCTGACCTTGGCACAGTGCCACCATCAACTTGCCTGACACCCATTACTCGCATCCATTCTCTCTGTACTTTCCTGACCTTGGCACAGTGCCACCATCAACTTGCCTGACACCGCTGGGAGTTCGTAGACGGAGCGATTAATCCATATGCAGGTCTATATAAGCAGAGCTCGTTTAGTGAACCGTCAGATCGCCTAGATACGCCATCCACGCTGTTTTGACCTCCATAGAAGATCGCCACCC	1.9	–
PB1-2-CMV: promoter: 3 mouse PBREM elements with CMV minimal promoter, SEQ ID NO: 17 (nucleic acid, PB1-2-CMV) DNA: TCTGTACTTTCCTGACCTTGGCACAGTGCCACCATCAACTTGCCTGACACCCATTACTCGCATCCATTCTCTCTGTACTTTCCTGACCTTGGCACAGTGCCACCATCAACTTGCCTGACACCGCACTGAAGGTCCTCAATCGTCTGTACTTTCCTGACCTTGGCACAGTGCCACCATCAACTTGCCTGACACCGCTGGGAGTTCGTAGACGGAGCGATTAATCCATATGCAGGTCTATATAAGCAGAGCTCGTTTAGTGAACCGTCAGATCGCCTAGATACGCCATCCACGCTGTTTTGACCTCCATAGAAGATCGCCACCC	2.67	–
PB1-SV40-MP: promoter: 1 mouse PBREM element with SV40 minimal promoter, SEQ ID NO: 9 (nucleic acid, PB1-SV40-MP) DNA: TCTGTACTTTCCTGACCTTGGCACAGTGCCACCATCAACTTGCCTGACACCGCTGGGAGTTCGTAGACGGACTAGCCCGGGCTCGAGATCTGCGATCTGCATCTCAATTAGTCAGCAACCATAGTCCCGCCCCTAACTCCGCCCATCCCGCCCCTAACTCCGCCCAGTTCCGCCCATTCTCCGCCCCATCGCTGACTAATTTTTTTTATTTATGCAGAGGCCGAGGCCGCCTCGGCCTCTGAGCTATTCCAGAAGTAGTGAGGAGGCTTTTTTGGAGGCCTAGGCTTTTGCAAAAAGCTTGGCATTCCGGTACTGTTGGTAAAGCCACCC	–	expression level compared to CMV-IE (1 μM CITCO): 55%; induction of luciferase expression (1 μM CITCO, readout 24 hrs after induction): around 7 fold; background level [1]: higher background level; expression driven [1]: highest expression
PB1-CMV-MP: promoter: 1 mouse PBREM element with CMV minimal promoter, SEQ ID NO: 8 (nucleic acid, PB1-CMV-MP) DNA: TCTGTACTTTCCTGACCTTGGCACAGTGCCACCATCAACTTGCCTGACACCGCTGGGAGTTCGTAGACGGAGCGATTAATCCATATGCAGGTCTATATAAGCAGAGCTCGTTTAGTGAACCGTCAGATCGCCTAGATACGCCATCCACGCTGTTTTGACCTCCATAGAAGATCGCCACCC	–	expression level compared to CMV-IE (1 μM CITCO): 10%; expression driven [1]: little to no expression
